Reference: US20160136272A1, “METHODS FOR RESTORING CORTICOSTEROID SENSITIVITY” (priority 2013, published 2016)

B1: 31C3: anti-human TLR3 mAb, cell deposited as 31C3.1, CNCM I-4186; VH/VL SEQ ID NO 75/76 (antibody, listed as Mus musculus, V domains shown)
VH: MGWSWIFLFLLSGTAGVLSEVQLQQSGPELVKPGASVKISCKPSGYSFTAYYMHWVKQSHVKSLEWIGRINPYNGATSYNRNFKDKASLTVDKSSSTAYMELHSLTSEDSAVYYCARSGGNTYFDYWGQGTTLTVS
VL: MSVPTQVLGLLLLWLTGARCDIQMTQSPASLSASVGETVTITCRASENIYSSLAWYQQKQGKSPQLLVYNAKTLAEGVPSRFSGSGSGTQFSSLKINSLQPEDFGTYYCQHHYGTPPTFGGGTKLEIK
B2: 34A3: anti-human TLR3 mAb; VH/VL SEQ ID NO 77/78 (antibody, listed as Mus musculus, V domains shown)
VH: MEWRWIFLFLLSGTTGVHSEIQLQQSGPELVKPGASVKVSCKASGYVFTTYSIYWVKQSHGKSLEWIGYIDPYNGDTSYNQKFKGKATLTVDKSSSTAYMHLNSLTSEDSTVYYCAREGNYYGYFDYWGQGTTLTVS
VL: MDFQVQIFSFLLMSASVIMSRGQIVLTQSPALMSASPGEKVTMTCSASSSVSYMFWYQQKPRSSPKPWIYLTSNLASGVPARFSGSGSGTSYSLTISSMEAEDAATYYCQQWTGNPPTFGGGTKLEIK
B3: 37B7: anti-human TLR3 Ab used in Example 11; VH/VL SEQ ID NO 71/72 (antibody, listed as Rattus norvegicus, V domains shown)
VH: QVQLQQSGTELVKPGSSVKISCKASGYTFTSNYMHWIRQLPGNGLEWIGWIFPGDGDTNYNQKFNGKATLTADKSSSTAYMQLSSLTSEDYAVYFCARSDGDWYFDFWGPGTMVTVSS
VL: DIQMTQSPGSLSASLGETVTIQCQASEDIYSGLAWYQQKPRKSPQLLISAASRLQDGVPSRFSGSGSGTQYSLKISSMQTEDEGVYFCQQGVKYPNTFGPGTKLELK

Key:
PBMC = test: IP-10 production by donor PBMC in response to dsRNA and drug combinations (ELISA); format: cell-based, human; settings: for IP-10 production in response to polyIC, antibody combined with methotrexate, dexamethasone or Humira / IP-10 production in response to polyAU, antibody combined with methotrexate, dexamethasone or Humira: antibody 50 μg/ml plus dose range of drug; for IP-10 production in response to polyIC, antibody combined with methotrexate, dexamethasone or Humira / IP-10 production in response to polyIC: 30 μg/ml poly(I:C); for IP-10 production in response to polyIC, antibody combined with methotrexate, dexamethasone or Humira: donors 1 and 2; for IP-10 production in response to polyAU, antibody combined with methotrexate, dexamethasone or Humira: 300 μg/ml IPH3102, donor 2; for IP-10 production in response to polyIC / IP-10 production in response to polyAU: antibody 50 μg/ml; for IP-10 production in response to polyIC: 24 h, human donors 1 and 2; for IP-10 production in response to polyAU: 300 μg/ml IPH3102, 24 h, human donor 2
Method: IP-10 production was assessed in human donors in response to polyAU (IPH3102), believed to be a specific agonist of TLR3, or plC, believed to be an agonist of TLR3 as well as other dsRNA receptors such as RIG-I and MDA-5. Fresh PBMC were isolated from whole blood of two independent donors. 1.5×10^6 (donor #1) and 3×10^6 (donor #2) PBMC per ml were incubated in flat-bottom 96W plates in the presence of 50 μg/ml 31C3 or 34A3 anti-human TLR3 mAbs and a dose range of methotrexate (300, 30 and 3 μg/ml), dexamethasone (200, 20, 2 μg/ml) or Humira® (100, 10, 1 μg/ml). Cells were incubated 1 hr at 37° C. prior addition of 300 μg/ml IPH3102 or 30 μg/ml poly(I:C). Cells were incubated for 24 additional hours at 37° C. Supernatant were then harvested to quantify IP10 production by ELISA. Cells were then recovered, stained with 7-AAD and analyzed by flow cytometry (FACS) to evaluate potential toxic effects of any drugs.

BEAS-2B cell line = test: IL-6 and IP-10 production by BEAS-2B cells in response to polyAU (ELISA); format: cell-based, human; settings: 300 μg/ml IPH3102, 24 h
Method: IL-6 and IP-10 production was assessed in PBMC and virus-transformed lung epithelial BEAS-2B cell line in response to high molecular weight polyAU (IPH3102), a specific agonist of TLR3. Experiments with BEAS-2B were performed in Bronchial Epithelial Growth Medium (Lonza, #CC-3170). 2×10^4 BEAS-2B per well were plated in flat-bottom 96W plates in 100 μl culture medium and incubated over night at 37° C. A part of the cells was treated for 24-supplemental hours with 1000 UI/ml Intron A (Schering Plough, IFN-alpha 2b). Medium was discarded and 37B7 anti-human TLR3 Ab (0.01 and 0.1 μg/ml in the condition without Intron A and 0.01 and 0.3 μg/ml after treatment with Intron A) was added to the culture. Cells were incubated 30 min at 37° C. prior addition of Dexamethasone (1, 0.1, 0.01, 0.001 μg/ml in the condition […] and 10, 1, 0.1, 0.01 μg/ml after treatment with Intron A) or Budesonide (1, 0.1, 0.01, 0.001 μg/ml). Cells were incubated 30-additional min at 37° C. before addition of 300 μg/ml IPH3102. Cells were finally incubated for 24-additional hours and supernatants were harvested to quantify IL-6 and IP-10 production by ELISA.

Molecule | IP-10 production in response to polyIC, antibody combined with methotrexate, dexamethasone or Humira (PBMC) | IP-10 production in response to polyAU, antibody combined with methotrexate, dexamethasone or Humira (PBMC) | IP-10 production in response to polyIC (PBMC) | IP-10 production in response to polyAU (PBMC) | IL-6 production by BEAS-2B, anti-TLR3 Ab combined with dexamethasone or budesonide (BEAS-2B cell line; highest anti-TLR3 Ab dose) | block of BEAS-2B IL-6 production (BEAS-2B cell line; highest concentration of anti-TLR3 Ab)
B1 | reduce IP-10 further | reduce IP-10 further | substantially reduce IP-10 production | substantially reduce IP-10 production | – | –
B2 | reduce IP-10 further | reduce IP-10 further | substantially reduce IP-10 production | substantially reduce IP-10 production | – | –
B3 | – | – | – | – | strong additive inhibition | ~50%
